Experimental data taken from paper PMC11740656.
Where “and” joins values, the source holds several entries; their conditions need not be identical. Equal entries are not always repeated.

Target: human CLDN4 (YFP- or CFP-tagged) (human)
Assay: FRET or BRET

stoichiometry N (hCLDN8:hCLDN4): 0.5 and 0.25
Substance: human CLDN8 (YFP- or CFP-tagged) (natural protein)
